# B1: CPEB3 Ribozyme (parent)
# chain: GGGGGCCACAGCAGAAGCGUUCACGUCGCGGCCCCUGUCAGAUUCUGGUGAAUCUGCGAAUUCUGCUGU
# Variants of: B1
# Experiment: self-cleavage, relative activity (ratio to wild type); higher = more cleavage; co-transcriptional
row,Variant,self-cleavage
1,G47C A51G,1
2,G47C U49A,1
3,U46C G50U,0.984
4,C45A A60G,0.862
5,C45A A60U,0.424
6,C45G C54A,0.579
7,C45U G58U,1.01
8,C45U G58C,1.01
9,C45U G58A,0.972
10,G47C C54A,0.949
11,C45U C54G,0.785
12,C45U C54U,1.01
13,G47A G58U,0.995
14,U46A U64C,0.98
15,U49G A59G,0.96
16,U49G A59U,0.835
17,U49G G68C,0.958
18,U49G G68A,1
19,G47U G56U,0.983
20,U46C A51C,0.99
21,C45A G47A,0.999
22,C45A G47C,0.995
23,C45A G47U,0.986
24,G48C C63G,0.829

row,Variant,self-cleavage
1,U49A G58A,1.01
2,U46A A52U,0.981
3,U46A A52G,1.03
4,U46A G56C,0.858
5,U46A G56U,0.941
6,U46C U49G,1.01
7,U49G G58C,1
8,U49G G58U,0.957
9,U46C A60G,0.88
10,G47C G56A,1
11,U46G G56A,0.941
12,U49C A51G,1.03
13,G48U U53A,1
14,G47A A60C,0.397
15,G47A A60G,0.944
16,G47C C57G,0.299
17,G47A G48U,1.03
18,C45U G47C,0.998
19,C45A C57U,0.374
20,C45A C57A,0.359
21,C45G U69G,1.05
22,U46A U55G,0.916
23,U49A C63U,0.94
24,U46G G68A,1.01

row,Variant,self-cleavage
1,G48U G58C,0.999
2,C45U G50U,0.991
3,C45U U61G,0.897
4,C45U C63G,0.816
5,C45U C63U,1
6,U49G C66A,0.891
7,U46A A59U,0.842
8,G47A U55A,1
9,G47U U55C,0.979
10,G47A U69C,1.06
11,G47A U67A,0.969
12,U49A G68U,0.982
13,U49C C54A,0.782
14,U49C,0.988
15,U49A,1
16,U49G,0.996
17,C45U U69G,1.05
18,G47A U61A,0.941
19,C45G G50U,0.961
20,C45A G48A,1.02
21,G47U U49A,1.01
22,G47U U49C,0.991
23,G48U A59G,0.993
24,C45A U49A,0.997

row,Variant,self-cleavage
1,C45A U49G,1.01
2,G47U C63A,0.944
3,G47U C63G,0.905
4,G47U C63U,1.01
5,U49C C63U,0.993
6,G47U G50U,1.04
7,G48U U55A,1
8,U46A U49C,0.666
9,U46A U49G,0.922
10,G48C U55C,0.963
11,G48C U55G,0.864
12,U49G A52G,0.94
13,U49A U62G,0.919
14,G47U A59U,0.833
15,G47A A59G,0.988
16,G47A A59C,0.769
17,U46G G48U,1.01
18,U46G G48C,0.994
19,U46G G48A,1.01
20,G48C U64G,0.974
21,G48C U64A,0.864
22,G47A C66A,0.916
23,G48A U55A,0.99
24,U49G A51U,0.95

row,Variant,self-cleavage
1,U49G A51G,0.981
2,G47A U64G,0.959
3,C45G G56U,0.722
4,C45G G56C,0.469
5,U49C C66A,0.77
6,U46C A52U,0.974
7,C45A C66A,0.744
8,C45A C66U,0.919
9,C45G U64A,0.908
10,G47A G50C,1
11,G47A G50A,0.959
12,C45U U62G,0.847
13,C45U U62C,0.895
14,C45A G50U,1.04
15,C45A G50C,0.931
16,G47A A51C,0.983
17,U49G G65A,0.97
18,U46C A59C,0.744
19,C45A C54A,0.603
20,C45U U53A,0.936
21,C45U U53G,0.9
22,U46A A51G,0.946
23,C45A U55C,0.516
24,U49C G50A,0.981

row,Variant,self-cleavage
1,C45G C63G,0.798
2,C45G C63A,0.732
3,U46A C57A,0.434
4,U46A,1
5,U46G,0.994
6,U46C,0.986
7,U46A A60U,0.556
8,U46A U61A,0.982
9,U46G A52C,0.942
10,U46G A52G,0.992
11,U46G G65A,0.928
12,U46G G65U,0.913
13,G48C C54G,0.919
14,G48C C54A,0.921
15,G47A C63G,0.922
16,G47A C63U,1.02
17,U46G U67C,0.979
18,G48C U61A,0.962
19,U46G U69A,1.01
20,U46G U69G,1.04
21,C45G A52G,0.989
22,C45G A52U,0.998
23,U49A U64A,0.942
24,G47A C54U,0.972

row,Variant,self-cleavage
1,U46C U61C,0.788
2,U46C U61G,0.856
3,U49C U55G,0.816
4,G47C U61C,0.87
5,U49A U53C,0.991
6,C45U U64C,0.905
7,C45U U64A,0.88
8,C45G C66U,0.961
9,C45G C66A,0.767
10,G48U C54A,0.994
11,G48U C54U,1.02
12,U46C C57G,0.361
13,U46C C57U,0.279
14,G47U G68A,0.991
15,G47U G68U,1.01
16,G47U G68C,1.01
17,G47U G48U,1.01
18,G47U G48A,1.03
19,U46G G58C,0.936
20,U46G G58A,0.957
21,G47A G56C,0.918
22,G47U U67A,0.99
23,G47U U67G,1.01
